Non-standard residues stand in square brackets, D forms with d. No end group written: not given here. Tyr(3-NO2) = N[C@@H](Cc1ccc(O)c([N+](=O)[O-])c1)C(=O)O; 2Abz = Nc1ccccc1C(=O)O
Key:
Type in all cases: biochemical
TS4-4 (ADAMTS-4) = target: T1, TS4-4 (ADAMTS-4) (Homo sapiens, UniProt O75173); test: Selectivity studies: cleavage of FRET peptide substrates by TS4-4; conditions: substrate 20 μM; for preference (selectivity) for TS5-5 over TS4-4: ratio of cleavage rates; for rate of cleavage by TS4-4: TS4-4 50–90 nM, mean of 3–4 independent experiments in triplicate
T1 construct: TS4-4, TS5-5 = catalytic and disintegrin domains; made in house; host or cells: HEK293 cells (previously transfected stocks)
T1 sequence (O75173 213-519 limits assumed): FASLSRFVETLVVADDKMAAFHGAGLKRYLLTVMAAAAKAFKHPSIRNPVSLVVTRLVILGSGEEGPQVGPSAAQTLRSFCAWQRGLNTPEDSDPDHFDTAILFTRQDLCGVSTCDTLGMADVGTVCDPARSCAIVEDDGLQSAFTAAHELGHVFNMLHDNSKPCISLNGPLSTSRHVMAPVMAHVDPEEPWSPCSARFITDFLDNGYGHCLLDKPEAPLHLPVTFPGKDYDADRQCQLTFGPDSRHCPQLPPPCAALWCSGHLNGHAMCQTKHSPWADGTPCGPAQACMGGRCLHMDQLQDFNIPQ
Protocol: (§1) All proteinase assays were performed at 37 °C in a SpectraMax M5 spectrophotometer (Molecular Devices, San Jose, USA) using a 96-well black microplate (Greiner bio-one, Stonehouse, UK) unless otherwise stated. […] N-TIMP-3 was purified as described previously[30] and CT-1746 was a gift from Dr. Yoshifumi Itoh (Kennedy Institute of Rheumatology, University of Oxford). All analyses were carried out using Prism 9 software (GraphPad, La Jolla, CA, USA).
(§2) Selectivity studies are described for Abz-TESE↓SRGAIY-Dpa-KK-NH2, the library parent peptide 3, and hit peptides 18–26. A solution of Abz-TESE↓SRGAIY-Dpa-KK-NH2 (22.22 μM) in freshly prepared TNC buffer with 0.005% (v/v) Brij-35 (90 μL) was added to a 96-well clear bottom microplate (Greiner bio-one, Stonehouse, UK) in triplicate. A substrate-only background control was also added in triplicate (90 μL). The resultant solutions were incubated at 37 °C (30 min). An ADAMTS or MMP proteinase was added to substrate wells (10 μL) to give a final proteinase concentration of either 50–90 nM (TS4-4), 25–200 nM (TS5-5), 5–10 nM (MMP-2ΔC), 30 nM (MMP-9ΔC), 92 nM (MMP-1), or 3 μM (MMP-3). TNC buffer with 0.005% (v/v) Brij-35 was added to substrate-only control wells (10 μL). The relative fluorescence intensity was measured at 37 °C for 1 h with readings every 20 s. Activity was read from underneath the microplate, which was covered with a low evaporation lid. […] For each ADAMTS and MMP proteinase, the assay was performed 2–4 times. […] Final rates were expressed as a percentage of substrate cleavage by TS5-5 (mean ± SEM) or in μM s^–1 μM^–1 of proteinase.

MMP-1 (full length) = test: Selectivity studies: cleavage of the current substrate by MMP-1; conditions: substrate 20 μM, MMP-1 92 nM, up to 72 h, 37 °C; single triplicate experiment
Protocol: as §1
Selectivity studies are described for Abz-TESE↓SRGAIY-Dpa-KK-NH2, the library parent peptide 3, and hit peptides 18–26. A solution of Abz-TESE↓SRGAIY-Dpa-KK-NH2 (22.22 μM) in freshly prepared TNC buffer with 0.005% (v/v) Brij-35 (90 μL) was added to a 96-well clear bottom microplate (Greiner bio-one, Stonehouse, UK) in triplicate. A substrate-only background control was also added in triplicate (90 μL). The resultant solutions were incubated at 37 °C (30 min). […] The relative fluorescence intensity was measured at 37 °C for 1 h with readings every 20 s. Activity was read from underneath the microplate, which was covered with a low evaporation lid. […] Final rates were expressed as a percentage of substrate cleavage by TS5-5 (mean ± SEM) or in μM s^–1 μM^–1 of proteinase.

[1] = target: T2, TS5-5 (combined catalytic and disintegrin domain of ADAMTS-5) (Homo sapiens, UniProt Q9UNA0); test: Cleavage of FRET peptide substrates by TS5-5 in solution (activity/selectivity studies); conditions: substrate 20 μM, 37 °C
T2 construct: ADAMTS-5 (i.e. TS5-5, residues 264–555); FLAG; made in house; host or cells: HEK293 cells (previously transfected stocks)
T2 sequence (Q9UNA0 264-555): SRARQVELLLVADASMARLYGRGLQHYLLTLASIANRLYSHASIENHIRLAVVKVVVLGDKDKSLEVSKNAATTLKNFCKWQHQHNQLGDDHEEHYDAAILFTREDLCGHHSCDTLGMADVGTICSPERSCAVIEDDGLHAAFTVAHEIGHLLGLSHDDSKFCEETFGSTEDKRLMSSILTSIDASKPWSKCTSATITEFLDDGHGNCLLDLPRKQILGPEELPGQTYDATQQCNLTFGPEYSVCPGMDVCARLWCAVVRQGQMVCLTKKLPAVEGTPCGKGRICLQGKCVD
Protocol: as §1
(§3) To test whether active TS5-5 had been purified, three concentrations of proteinase were assayed. A solution of Abz-TESE↓SRGAIY-Dpa-KK-NH2 (22.22 μM) in freshly prepared TNC buffer with 0.02% (v/v) Brij-35 (180 μL) was added to a 96-well black microplate in triplicate for each proteinase concentration. A substrate-only background control was also added in triplicate (180 μL). The resultant solutions were incubated at 37 °C (30 min). TS5-5 proteinase in TNC buffer with 0.02% (v/v) Brij-35 (20 μL) was added to wells to give final proteinase concentrations of 80 nM, 40 nM and 20 nM. TNC buffer with 0.02% (v/v) Brij-35 (20 μL) was also added to background control wells. The change in RFU was measured at 37 °C for 1 h, with readings every 20 s. Following subtraction of background fluorescence intensity, linear regression analysis of the linear part of each curve was used to determine the cleavage rate, which was expressed as the mean ± SEM in RFU s^–1. For cases where a single concentration of TS5-5 or TS4-4 was assayed, the same procedure was used but with 0.005% (v/v) Brij-35 and using the 5-FAM-AE↓LQGRPISIAK-TAMRA substrate for TS4-4 (0.56 μM). To convert cleavage rates to nM s^–1 nM^–1, the rate in RFU s^–1 was divided by the final concentration of proteinase (nM), then divided by the gradient of the calibration curve for Abz or 5-FAM (expressed in RFU nM^–1).
as §2

TS5-5 (ADAMTS-5) = target: T3, TS5-5 (ADAMTS-5) (Homo sapiens, UniProt Q9UNA0); test: Rate of cleavage of 3 and 26 by TS5-5 at different substrate concentrations; conditions: TS5-5 57 nM, after 1 h, 37 °C
T3 construct: ADAMTS-5 (i.e. TS5-5, residues 264–555); FLAG; made in house; host or cells: HEK293 cells (previously transfected stocks)
T3 sequence (Q9UNA0 264-555): T2 sequence (Q9UNA0 264-555)
Protocol: as §3, with “A solution of Abz-TESE↓SRGAIY-Dpa-KK-NH2 (22.22 μM) in freshly prepared TNC buffer with 0.02% (v/v) Brij-35 (180 μL) was added to a 96-well black microplate in triplicate for each proteinase concentration.” left out, “TS5-5 proteinase in TNC buffer with 0.02% (v/v) Brij-35 (20 μL) was added to wells to give final proteinase concentrations of 80 nM, 40 nM and 20 nM.” left out
This was carried out according to the procedure described for activity studies of ADAMTSs with a single concentration of proteinase, except that a range of substrate concentrations was used for 3 and 26 (20 to 0.63 μM). Additionally, control wells for each substrate concentration were used in single replicate. The final concentration of TS5-5 was 57 nM.

[2] = TNC buffer with 0.005% (v/v) Brij-35, 37 °C

Substance | preference (selectivity) for TS5-5 over TS4-4 (TS4-4 (ADAMTS-4)) | cleavage by TS4-4 as a fraction (percentage) of TS5-5 cleavage of the current substrate (TS4-4 (ADAMTS-4); TNC buffer with 0.005% (v/v) Brij-35, 37 °C, mean of 2–8 independent experiments in triplicate) | rate of cleavage by TS4-4 (TS4-4 (ADAMTS-4); [2]) | cleavage by MMP-1 (MMP-1 (full length)) | improvement in cleavage (overall cleavage rate) by TS5-5 compared to the current substrate [1] | lowest concentration of substrate detectibly cleaved by TS5-5 (ΔRFU ≥ 300) (TS5-5 (ADAMTS-5))
Abz-TESE↓SRGAIY-Dpa-KK-NH2 [current, ortho-aminobenzoyl(Abz)-TESE↓SRGAIY-N-3-[2,4-dinitrophenyl]-L-2,3-diaminopropionyl(Dpa)-KK-NH2, reference compound] | ~5 fold | 22% | 0.090 μM s^–1 μM^–1 | no cleavage was observed | – | –
KY(NO2)SENESRGK(Abz)IYYKKG (K[Tyr(3-NO2)]SENESRGK(2Abz)IYYKKG) [Compound 26] | ~13 fold | – | 0.08–0.10 μM s^–1 μM^–1 | – | ~3 fold | 5 µM
KY(NO2)TESESRGK(Abz)IYYKKG (K[Tyr(3-NO2)]TESESRGK(Abz)IYYKKG) [Compound 3] | ~16 fold | – | 0.08–0.10 μM s^–1 μM^–1 | – | ~4 fold | 2.5 µM

— PMC10009750, “Development of Selective ADAMTS-5 Peptide Substrates to Monitor Proteinase Activity” (Journal of Medicinal Chemistry, 2023)
